# Test results: PMC2847215
# T1: rMcrA-S (UniProt P24200 1-277)
# T1 sequence: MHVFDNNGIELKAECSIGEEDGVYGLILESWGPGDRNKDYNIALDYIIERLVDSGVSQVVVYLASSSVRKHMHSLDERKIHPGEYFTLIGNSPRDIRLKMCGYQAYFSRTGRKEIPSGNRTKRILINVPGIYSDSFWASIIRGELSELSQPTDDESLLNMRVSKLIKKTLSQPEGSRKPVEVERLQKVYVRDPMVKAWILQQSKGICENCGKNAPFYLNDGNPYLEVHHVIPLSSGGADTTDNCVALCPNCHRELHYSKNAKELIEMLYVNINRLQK
# B1: TCGG cassette (dsDNA)
# DNA 1: CCCTCTGTCGGAGGAGGCTCCTGC
# DNA 2: GCAGGAGCCTCCTCCGACAGAGGG
# modifications: m5C9 strand 1, m5C15 strand 2 (M.SssI)
# B2: CCGG cassette (oligos 17/18) (dsDNA)
# DNA 1: CCCTCTGCCGGAGGAGGATCCTGC
# DNA 2: GCAGGATCCTCCTCCGGCAGAGGG
# modifications: m5C9 strand 1, m5C15 strand 2 (M.SssI)
# B3: CCGA cassette (dsDNA)
# DNA 1: CCCTCTGCCGAAGGAGGCTCCTGC
# DNA 2: GCAGGAGCCTCCTTCGGCAGAGGG
# modifications: m5C9 strand 1, m5C15 strand 2 (M.SssI)
# B4: TCGA cassette (dsDNA)
# DNA 1: CCCTCTGTCGAAGGAGGCTCCTGC
# DNA 2: GCAGGAGCCTCCTTCGACAGAGGG
# modifications: m5C9 strand 1, m5C15 strand 2 (M.SssI)
# B5: C/G hemimethylated HpaII cassette (dsDNA)
# DNA 1: GCCTTCAGCGCCGGCGGATCCAGT
# DNA 2: ACTGGATCCGCCGGCGCTGAAGGC
# modifications: m5C12 in strand 1 only
# B6: C/A mismatch cassette (dsDNA)
# DNA 1: GCCTTCAGCGCCGGCGGATCCAGT
# DNA 2: ACTGGATCCGCCAGCGCTGAAGGC
# modifications: m5C12 in strand 1 only
# B7: unmethylated cassette (oligos 7/8) (dsDNA)
# DNA 1: GCCTTCAGCGCCGGCGGATCCAGT
# DNA 2: ACTGGATCCGCCGGCGCTGAAGGC
# B8: CGC cassette (dsDNA)
# DNA 1: CCCTCTGACGCAGGAGGCTCCTGC
# DNA 2: GCAGGAGCCTCCTGCGTCAGAGGG
# modifications: m5C9 strand 1, m5C15 strand 2 (M.SssI)
# B9: CGT cassette (dsDNA)
# DNA 1: CCCTCTGACGTAGGAGGCTCCTGC
# DNA 2: GCAGGAGCCTCCTACGTCAGAGGG
# modifications: m5C9 strand 1, m5C15 strand 2 (M.SssI)
# B10: GCGA cassette (dsDNA)
# DNA 1: CCCTCTGGCGAAGGAGGCTCCTGC
# DNA 2: GCAGGAGCCTCCTTCGCCAGAGGG
# modifications: m5C9 strand 1, m5C15 strand 2 (M.SssI)
# B11: CGA and ACGA cassette (dsDNA)
# DNA 1: CCCTCTGACGAAGGAGGCTCCTGC
# DNA 2: GCAGGAGCCTCCTTCGTCAGAGGG
# modifications: m5C9 strand 1, m5C15 strand 2 (M.SssI)
# B12: GCGG cassette (dsDNA)
# DNA 1: CCCTCTGGCGGAGGAGGCTCCTGC
# DNA 2: GCAGGAGCCTCCTCCGCCAGAGGG
# modifications: m5C9 strand 1, m5C15 strand 2 (M.SssI)
# B13: CGG and ACGG cassette (dsDNA)
# DNA 1: CCCTCTGACGGAGGAGGCTCCTGC
# DNA 2: GCAGGAGCCTCCTCCGTCAGAGGG
# modifications: m5C9 strand 1, m5C15 strand 2 (M.SssI)
# B14: cassette CCGG, single symmetric m5C in HpaII site (dsDNA)
# DNA 1: GCCTTCAGCGCCGGCGGATCCAGT
# DNA 2: ACTGGATCCGCCGGCGCTGAAGGC
# modifications: m5C12 in strand 1 and m5C12 in strand 2 (positions from site name)
# Target: T1, rMcrA-S
# Assay: EMSA
row,Binder,binding result
1,B1,binds
2,B2,binds
3,B3,binds
4,B4,binds

# Target: T1, rMcrA-S
# Assay: EMSA
# Remark: another data set of the same source
row,Binder,binding result
1,B5,binds
2,B6,no binding
3,B7,no binding
4,B8,no binding
5,B9,no binding

# Target: T1, rMcrA-S
# Assay: EMSA
# Remark: another data set of the same source
row,Binder,binding result
1,B10,binds
2,B11,binds
3,B12,binds
4,B13,binds

# Target: T1, rMcrA-S
# Assay: EMSA
# Remark: another data set of the same source
row,Binder,binding result
1,B14,binds
